From US20190106487A1 (Sanofi, published 2019)

Columns and labels:
[1] = target: T1, human IL-1RAcP on 293T/17-FR cells (human, UniProt Q9NPH3 21-570); assay: cell-based or functional assay
T1 sequence (looked up): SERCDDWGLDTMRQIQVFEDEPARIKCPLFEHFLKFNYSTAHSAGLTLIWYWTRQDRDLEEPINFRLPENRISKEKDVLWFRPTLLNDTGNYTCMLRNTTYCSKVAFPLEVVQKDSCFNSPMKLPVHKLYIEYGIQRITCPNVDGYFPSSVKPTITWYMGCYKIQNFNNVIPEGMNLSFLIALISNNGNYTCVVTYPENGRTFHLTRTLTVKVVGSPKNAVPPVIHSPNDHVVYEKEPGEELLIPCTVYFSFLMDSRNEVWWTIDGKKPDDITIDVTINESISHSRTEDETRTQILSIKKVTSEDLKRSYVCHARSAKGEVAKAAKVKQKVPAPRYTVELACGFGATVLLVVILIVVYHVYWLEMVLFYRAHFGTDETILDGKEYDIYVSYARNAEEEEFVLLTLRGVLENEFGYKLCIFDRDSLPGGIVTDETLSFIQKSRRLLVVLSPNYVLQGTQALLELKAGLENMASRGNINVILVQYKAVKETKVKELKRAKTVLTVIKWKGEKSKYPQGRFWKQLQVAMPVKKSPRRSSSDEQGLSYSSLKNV

[2] = target: T2, rhIL-1RAcP/Fc Chimera (human, UniProt Q9NPH3 21-359); assay: ELISA, recombinant purified mAb
T2 construct: also called P013_03; P013-03
T2 sequence (looked up): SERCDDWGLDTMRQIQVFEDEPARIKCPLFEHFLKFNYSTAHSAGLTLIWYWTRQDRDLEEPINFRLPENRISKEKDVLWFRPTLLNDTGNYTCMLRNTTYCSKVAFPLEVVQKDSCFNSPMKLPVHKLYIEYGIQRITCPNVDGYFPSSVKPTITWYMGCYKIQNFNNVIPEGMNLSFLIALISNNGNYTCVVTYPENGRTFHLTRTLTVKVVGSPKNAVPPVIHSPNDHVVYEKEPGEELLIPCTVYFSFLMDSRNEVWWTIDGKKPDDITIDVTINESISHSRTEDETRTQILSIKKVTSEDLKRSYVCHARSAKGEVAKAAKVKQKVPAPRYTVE

[3] = target: T2, rhIL-1RAcP/Fc Chimera; assay: ELISA, primary supernatant, coated hu-IL-1RAcP-Fc
How it was run: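 Plates coated with 0.5 μg/mL Fc-tagged human IL-1RAcP; rabbit B-cell supernatant antibodies detected by peroxidase anti-rabbit IgG Fab2 and TMB, absorbance 450/620 nm. Parallel IL12Rβ1-Fc coating served as counterscreen to exclude tag binders.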

[4] = target: T3, mIL1RAcP-Fc (murine, UniProt Q61730 21-359); assay: ELISA, primary supernatant, coated mu-IL-1RAcP-Fc
T3 construct: also called P013_04; P013-04
T3 sequence (looked up): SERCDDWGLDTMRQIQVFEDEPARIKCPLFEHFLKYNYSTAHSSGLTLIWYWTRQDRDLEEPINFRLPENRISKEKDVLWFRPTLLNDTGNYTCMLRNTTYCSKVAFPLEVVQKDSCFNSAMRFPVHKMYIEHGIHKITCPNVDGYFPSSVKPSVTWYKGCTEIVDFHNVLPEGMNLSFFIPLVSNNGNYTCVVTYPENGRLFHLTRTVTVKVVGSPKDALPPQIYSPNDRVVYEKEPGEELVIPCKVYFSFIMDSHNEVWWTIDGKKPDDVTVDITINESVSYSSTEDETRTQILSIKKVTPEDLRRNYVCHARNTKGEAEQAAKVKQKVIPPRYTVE

B1: P013.S.02.B.B03 (antibody, V domains shown)
VH: QEQLEESGGDLVKPEGSLTLTCTASGFSFSSNYWICWVRQAPGKGLELIACIYTSTGNTWYASWAKGRFTISKTSSTTVTLQMTSLTVADTATYFCARDLLVVTSFNLWGQGTLVTVSS
VL: ALVMTQTPSPVSAAVGGTVTINCQASEDIYSNLAWFQQKPGQPPKLLIYGASTLASGVPSRFSGSGSGTEFTLTISGVQSDDAATYYCLGVCTDISTDDLYNAFGGGTELVVK
notes: rabbit monoclonal antibody; also called P013.A.00045.F11
functional reporter gene assay (% inhibition), 0.04 µg/mL mAb [1]: 17%
functional reporter gene assay (% inhibition), 0.2 µg/mL mAb [1]: 31%
functional reporter gene assay (% inhibition), 1 µg/mL mAb [1]: 78%
functional reporter gene assay (% inhibition), 5 µg/mL mAb [1]: 89%
primary supernatant functional assay (% inh.), NF-kB luciferase reporter [1]: 94%
EC50 [2]: 0.287 µg/mL
hu-IL1RaP ELISA (OD) [3]: 3.8 OD
mu-IL1RaP ELISA (OD) [4]: -0.1 OD

B2: P013.S.02.B.D01 (antibody, V domains shown)
VH: LEQSGGGAEGGLVKPGGSLELCCKASGFSLSSNYWMCWVRQAPGKGLEWIGCIYAGSSDSTYYASWVNGRFTLSRDIDQSTGCLQLNSLTAADTAMYYCASPGYGGYGYYGLWGQGTLVTVSS
VL: ALVMTQTPSPVSAAVGGTVTINCQASEDIYSNLAWFQQKPGQPPKLLIYDASTLASGVPSRFSGSGSGTEFTLTISGLQSDDAATYYCLGVYTYISPDGTDNAFGGGTEVVVK
notes: rabbit monoclonal antibody; also called P013.A.00141.G02
functional reporter gene assay (% inhibition), 0.04 µg/mL mAb [1]: 9%
functional reporter gene assay (% inhibition), 0.2 µg/mL mAb [1]: 22%
functional reporter gene assay (% inhibition), 1 µg/mL mAb [1]: 54%
functional reporter gene assay (% inhibition), 5 µg/mL mAb [1]: 79%
primary supernatant functional assay (% inh.), NF-kB luciferase reporter [1]: 85%
EC50 [2]: 0.555 µg/mL
hu-IL1RaP ELISA (OD) [3]: 3.4 OD
mu-IL1RaP ELISA (OD) [4]: -0.1 OD

B3: P013.S.02.B.F04 (antibody, V domains shown)
VH: QEQLVESGGDLVKPEGSLTLTCTASGFSFSSNYWICWVRQAPGKGLEWIACIYTSTDTTYYPNWAKGRFTISKTSSTTVTLQMTSLTAADTATYFCARDLLVVTSFNLWGQGTLVTVSS
VL: ALVMTQTPSPVSAAVGGTVTINCQASEDIYSNLAWFQQKPGQPPKLLIYGASTLASGVPSRFSGSGSGTEFTLTISGVQSDDAATYYCLGVCTDISADDLYNTFGGGTEVVVK
notes: rabbit monoclonal antibody; also called P013.A.00109.B02
functional reporter gene assay (% inhibition), 0.04 µg/mL mAb [1]: 21%
functional reporter gene assay (% inhibition), 0.2 µg/mL mAb [1]: 6%
functional reporter gene assay (% inhibition), 1 µg/mL mAb [1]: 81%
functional reporter gene assay (% inhibition), 5 µg/mL mAb [1]: 96%
primary supernatant functional assay (% inh.), NF-kB luciferase reporter [1]: 93%
EC50 [2]: 0.497 µg/mL
hu-IL1RaP ELISA (OD) [3]: 3.5 OD
mu-IL1RaP ELISA (OD) [4]: 0 OD

B4: P013.S.01.B.C06 (antibody, V domains shown)
VH: QSVEESGGRLVTPGGSLTLTCTVSGFSLSIYAMGWFRQAPGKGLEWIGDIYAGSGSTWYASWAKGRFTISKTSTTVDLKITSPTTEDTATYFCAREIDAGYVGYGFNLWGQGTLVTVSS
VL: AQALTQTPSSVSAAVGGTVTINCQSSQSVYSDYLAWYQQKPGQPPKLLIYQASKLATGVPSRFKGSGSGTQFTLTISGVQSDDAATYYCQATYYGSGWYRAFGGGTELVVK
notes: rabbit monoclonal antibody; also called P013.A.00014.D06
functional reporter gene assay (% inhibition), 0.04 µg/mL mAb [1]: 15%
functional reporter gene assay (% inhibition), 0.2 µg/mL mAb [1]: 70%
functional reporter gene assay (% inhibition), 1 µg/mL mAb [1]: 92%
functional reporter gene assay (% inhibition), 5 µg/mL mAb [1]: 93%
primary supernatant functional assay (% inh.), NF-kB luciferase reporter [1]: 72%
EC50 [2]: 0.07 µg/mL
hu-IL1RaP ELISA (OD) [3]: 3.4 OD
mu-IL1RaP ELISA (OD) [4]: -0.1 OD

B5: P013.S.02.B.C01 (antibody, V domains shown)
VH: QSVEESGGRLVTPGGSLTLTCTVSGFSLSVYAMGWFRQAPGKGLEWIGDIYTGSGSTWYASWAKGRFTISKTSTTVDLKITSPTTEDTATYFCAREIDAGYVGYGFNLWGQGTLVTVSS
VL: AQALTQTPSSVSAAVGGTVTINCQSSQSVYSDYLVWYQQKPGQPPKLLIYQASKLASGVPSRFKGSGSGTQFTLTISGVQSDDAATYYCQATYSSTGWYRAFGGGTEVVVK
notes: rabbit monoclonal antibody; also called P013.A.00109.C12
functional reporter gene assay (% inhibition), 0.04 µg/mL mAb [1]: 19%
functional reporter gene assay (% inhibition), 0.2 µg/mL mAb [1]: 28%
functional reporter gene assay (% inhibition), 1 µg/mL mAb [1]: 73%
functional reporter gene assay (% inhibition), 5 µg/mL mAb [1]: 96%
primary supernatant functional assay (% inh.), NF-kB luciferase reporter [1]: 88%
EC50 [2]: 0.256 µg/mL
hu-IL1RaP ELISA (OD) [3]: 3.5 OD
mu-IL1RaP ELISA (OD) [4]: -0.1 OD

B6: P013.S.02.B.C03 (antibody, V domains shown)
VH: QSLEESGGRLVTPGTPLTLTCTVSGIDLSSYAMGWVRQAPGKGLEYIGIISNSGTTYYASWAKGRFTISKTSSTTVDLKMTSPTTEDTATYFCARDRYANTHGIFSLWGQGTLVTVSS
VL: DIVMTQTPASVSAPVGGTVTINCQASESIYSDLAWYQQKPGQPPKLLISFVATLESGVPSRFKGSGSGTEFTLTISDLESADAATYYCQCTYGGSGSGNGAAFGGGTEVVVK
notes: rabbit monoclonal antibody; also called P013.A.00085.G07
functional reporter gene assay (% inhibition), 0.04 µg/mL mAb [1]: 21%
functional reporter gene assay (% inhibition), 0.2 µg/mL mAb [1]: 27%
functional reporter gene assay (% inhibition), 1 µg/mL mAb [1]: 31%
functional reporter gene assay (% inhibition), 5 µg/mL mAb [1]: 30%
primary supernatant functional assay (% inh.), NF-kB luciferase reporter [1]: 29%
EC50 [2]: 0.847 µg/mL
hu-IL1RaP ELISA (OD) [3]: 3.6 OD
mu-IL1RaP ELISA (OD) [4]: 0.7 OD

B7: P013.S.02.B.B02 (antibody, V domains shown)
VH: LAQSGGGAEGGLVKPGGSLELCCEASGFSLSSSYWICWVRQAPGKGLEWIGCIYTGSSGNTYYASWVNGRFTLSRDIDRSTGCLQLNSLTAADTAMYYCARDANSHYMMNLWGQGTLVTVSS
VL: ALVMTQTPSPVSAAVGGTVTINCQASEDIYSNLAWFQQKPGQPPKLLIYDASTLASGVPSRFSGSGSGTEFTLTISGLQSDDAATYYCLGVYTYISADGTLVYNAFGGGTEVVVR
notes: rabbit monoclonal antibody; also called P013.A.00045.H10
functional reporter gene assay (% inhibition), 0.04 µg/mL mAb [1]: 26%
functional reporter gene assay (% inhibition), 0.2 µg/mL mAb [1]: 37%
functional reporter gene assay (% inhibition), 1 µg/mL mAb [1]: 33%
functional reporter gene assay (% inhibition), 5 µg/mL mAb [1]: 87%
primary supernatant functional assay (% inh.), NF-kB luciferase reporter [1]: 95%
EC50 [2]: 0.359 µg/mL
hu-IL1RaP ELISA (OD) [3]: 3.4 OD
mu-IL1RaP ELISA (OD) [4]: -0.1 OD

B8: P013.S.02.B.A05 (antibody, V domains shown)
VH: QEQLVESGGGLVQPEGSLTLTCQASGFTFSSYYVICWVRQAPGKGLEWIACIGTGDGLTYYASWAKGRFTISKTSSTTVTLQMTSLTAADTATYFCARDRYATVSGILNLWGPGTLVTVSS
VL: DVVMTQTPASVEAAVGGTVTIKCQASQNIYSNCAWYQQKLGQRPKLLIYYVSTLESGVPSRFEGSGYGTEFTLTISDLQSADAATYYCQYTYDSSSSTSWAFGGGTEVVVK
notes: rabbit monoclonal antibody; also called P013.A.00031.D11
functional reporter gene assay (% inhibition), 0.04 µg/mL mAb [1]: -16%
functional reporter gene assay (% inhibition), 0.2 µg/mL mAb [1]: 42%
functional reporter gene assay (% inhibition), 1 µg/mL mAb [1]: 47%
functional reporter gene assay (% inhibition), 5 µg/mL mAb [1]: 48%
primary supernatant functional assay (% inh.), NF-kB luciferase reporter [1]: 80%
EC50 [2]: 0.362 µg/mL
hu-IL1RaP ELISA (OD) [3]: 3.6 OD
mu-IL1RaP ELISA (OD) [4]: 0 OD
